Experimental findings from US20220378829A1 (CRISPR THERAPEUTICS, published 2022) are described below.

This test deals with T1, CD70 on human cancer cell lines (A498, ACHN, SK-OV-3, Hs 766T, NCI-H1975, Calu-1, DU 145, SNU-1, MM.1S, HuT78) (human, UniProt P32970 1-193).
T1 sequence (looked up): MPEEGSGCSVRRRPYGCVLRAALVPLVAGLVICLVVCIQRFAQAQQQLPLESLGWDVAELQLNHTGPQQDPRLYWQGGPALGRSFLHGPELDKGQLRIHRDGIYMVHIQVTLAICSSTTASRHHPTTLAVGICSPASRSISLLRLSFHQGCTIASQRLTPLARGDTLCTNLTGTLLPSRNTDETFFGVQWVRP
Kind of test: cell-based or functional assay.

B1: anti-CD70 CAR (CD70B scFv with 41BB), expressed on the surface of gene-edited human T cells (CTX130: TRAC-/β2M-/CD70-/anti-CD70 CAR+ T cells) (other)
chain: QVQLVQSGAEVKKPGASVKVSCKASGYTFTNYGMNWVRQAPGQGLKWMGWINTYTGEPTYADAFKGRVTMTRDTSISTAYMELSRLRSDDTAVYYCARDYGDYGMDYWGQGTTVTVSSGGGGSGGGGSGGGGSGDIVMTQSPDSLAVSLGERATINCRASKSVSTSGYSFMHWYQQKPGQPPKLLIYLASNLESGVPDRFSGSGSGTDFTLTISSLQAEDVAVYYCQHSREVPWTFGQGTKVEIKSAAAFVPVFLPAKPTTTPAPRPPTPAPTIASQPLSLRPEACRPAAGGAVHTRGLDFACDIYIWAPLAGTCGVLLLSLVITLYCNHRNRKRGRKKLLYIFKQPFMRPVQTTQEEDGCSCRFPEEEEGGCELRVKFSRSADAPAYQQGQNQLYNELNLGRREEYDVLDKRRGRDPEMGGKPRRKNPQEGLYNELQKDKMAEAYSEIGMKGERRRGKGHDGLYQGLSTATKDTYDALHMQALPPR
Regarding B1, the “cell lysis of A498 cells by TRAC-/β2M-/CD70-/anti-CD70 CAR+ T cells, T cell:A498 ratios 1:1 and 0.5:1, 24 h (Cell titer-Glo)” value is above 90%; the “cell lysis of A498 cells by TRAC-/β2M-/anti-CD70 CAR+ T cells (2×KO), T cell:A498 ratios 1:1 and 0.5:1, 24 h (Cell titer-Glo)” value was below 90%.
